One data set has as its system B16F10 melanoma cells. The data set is described as follows: Cell culture Cy5 imaging of peptide uptake. The format is cell-based. To be noted: murine B16 cells, 1 μM peptide in 1% FBS, 2 h at room temperature then 2 h in media, fixed. As to the method: (§1) Murine B16F10 melanoma and LL2 Lewis lung carcinoma cell lines were purchased from ATCC. MC38 colon adenocarcinoma cell line was purchased from Kerafast (Boston, MA, USA). Cell lines were grown in Dulbecco’s modified eagle’s medium (DMEM) + 10% fetal bovine serum (FBS) media. All cell lines were maintained at low passage and routinely tested for mycoplasma. For Cy5 imaging, cells were resuspended and incubated with Cy5 labeled r9 or ACPP at 1 μM in 1% FBS. The cells were incubated for 2 h under rotation and covered to be protected from light at room temperature. Cells were then spun down (5 min at 2000 rpm) and resuspended in cell media for an additional 2 h. The cells were then fixed with 4% paraformaldehyde in phosphate buffered saline (PBS), washed twice with PBS and incubated with 4′,6-diamidino-2-phenylindole (DAPI) stain (1:500). Finally, the cells were washed with PBS and mounted on slides using Fluoromount mounting media (Sigma, St Louis, MI, USA). Cells were imaged using a Keyence microscope with a 100× oil objective and high-resolution settings.

Data set [1] concerns LL2 Lewis lung carcinoma cells. Briefly: Cell culture Cy5 imaging of peptide uptake. Format: cell-based. To be noted: murine LL2 cells, 1 μM peptide in 1% FBS, 2 h at room temperature then 2 h in media, fixed. As to the method: as §1
Data set [2] concerns MC38 colon adenocarcinoma cells. Briefly: Cell culture Cy5 imaging of peptide uptake. To be noted: murine MC38 cells, 1 μM peptide in 1% FBS, 2 h at room temperature then 2 h in media, fixed. Format: cell-based. As to the method:
as §1

For data set [3], the system named is B16F10 melanoma tumors. The data set is described as follows: In vivo murine therapy experiments. Further details: species or system mice. The conditions noted are these: for Tumor control (tumor volume) vs control untreated: day 5 and day 9, 10 tumors per group. Here is the method: Female six-week-old C57Bl6 albino mice were injected with 50,000 B16F10 melanoma cells subcutaneously in both thighs using a 1:1 mixture of PBS:Matrigel. The tumors were palpable five days after implant at which point treatment was initiated. Due to the rapid growth of B16F10 tumor in mice, dosing began when tumors reached an average size of 30 ± 13 mm^3. Animals were divided into four treatment groups: control, intratumoral (i.t.) resiquimod (30 nmoles per tumor), i.t. ACPP-resiquimod (30 nmoles per tumor), or i.v. ACPP-resiquimod (60 nmoles per mouse). Mice were given free drug or ACPP conjugated on day 5 and day 9. Each treatment group had five mice with 10 tumors. Tumor volumes were measured bi-weekly and mice weighed weekly. Mice were sacrificed when the tumor size reached 1500 mm^3.

Data set [4] relates to B16F10 melanoma tumors. Briefly: Tissue drug concentration (LC-MS/MS) after i.v. ACPP-resiquimod. The format is in vivo. The conditions noted are these: B16F10 tumor bearing C57Bl6 albino mice, 30 nmoles ACPP-resiquimod i.v., 6 h post injection, free resiquimod by LC-MS/MS. Here is the method: Female six-week-old C57Bl6 albino mice were injected with 50,000 B16F10 melanoma cells subcutaneously into both thighs using a 1:1 PBS:Matrigel. Mice were i.v. injected with 30 nmoles of ACPP-resiquimod in 100 µL sterile water and 6 h post injection mice were sacrificed. Tumor and adjacent muscle tissue were excised, weighed, and flash frozen in liquid N2. A mixture of 44 mL H2O, 44 mL acetonitrile, and 2 mL glacial acetic acid was used as the diluent. Nine times w/v of diluent was added to the frozen tissue. Tissues were dissociated on ice with a Sonic dismemberator Model 500 (Fisher Scientific) tissue probe homogenizer using 5 s pulse of 20% amplitude four to five times. The samples were spun down to obtain clear supernatant. For muscle tissue, addition passage through a 0.22 µm Nylon filter (Costar Spin X; purchased from Sigma, St Louis, MI, USA) was used to obtain clear supernatant. A fixed volume of tissue supernatant from each sample was injected on the LC-MS/MS (Agilent 1100 LC with MSD Trap XCT, Santa Clara, CA, USA). Each sample was run in duplicate on the LC-MS/MS to determine reproducibility of integrated ion current for each sample. […] Concentration of unknown samples were then calculated (Graphpad PRISM).

The record followed here is paper PMC8000974, “Tumor Activated Cell Penetrating Peptides to Selectively Deliver Immune Modulatory Drugs” (Pharmaceutics, 2021).

Turning to `CCN1C(=CC=CC=CC2=[N+](CCCCCC(=O)NCCN3C(=O)CC(SC[C@@H](NC(=O)[C@@H](CCCNC(=N)N)NC(=O)[C@@H](CCCNC(=N)N)NC(=O)[C@@H](CCCNC(=N)N)NC(=O)[C@@H](CCCNC(=N)N)NC(=O)[C@@H](CCCNC(=N)N)NC(=O)[C@@H](CCCNC(=N)N)NC(=O)[C@@H](CCCNC(=N)N)NC(=O)[C@@H](CCCNC(=N)N)NC(=O)[C@H](N)CCCNC(=N)N)C(N)=O)C3=O)c3ccc(S(=O)(=O)[O-])cc3C2(C)C)C(C)(C)c2cc(S(=O)(=O)O)ccc21` (stereo partly shown) [Cy5 labeled r9], the “Cell uptake (Cy5 fluorescence microscopy)” value (in the data set with B16F10 melanoma cells; in data set [1]; in data set [2]) was “readily taken up” in each case.
For `CCOCc1nc2c(N)nc3ccccc3c2n1CC(C)(C)O` [resiquimod, Resiquimod, reference compound], the “Tumor control (tumor volume) vs control untreated” value in the data set on B16F10 melanoma tumors [3] (i.t. 30 nmoles per tumor) is “improved tumor control”. Besides, the “Mouse survival, dose response” value in the data set with B16F10 melanoma tumors [3] (i.t. injection, 30 nmoles compared to 10 nmoles, Log-rank (Mantel–Cox) test) is recorded as “statistically improved survival”.
“cyclo(RGD)fc-MC-HN-peg8-e9-oPLGC(Me)AG-r9-c-(MC-VC-PABC-resiquimod-CONH2 [ACPP-resiquimod]”: the “Resiquimod drug concentration in tumor tissue” value in the data set on B16F10 melanoma tumors [4] amounted to 1142.3 ± 111.7 nM. The “Resiquimod drug concentration in peri-tumoral muscle tissue” value in the data set with B16F10 melanoma tumors [4] (negative value from calibration background noise) is -5.8 ± 3.5 nM. Also, in the data set with B16F10 melanoma tumors [3] (ACPP-resiquimod i.t. or i.v. vs i.t. free resiquimod, total drug per animal constant), the “Antitumor efficacy compared with free resiquimod” value is “as efficacious as free resiquimod”. Besides, the “Tumor control (tumor volume) vs control untreated” value with B16F10 melanoma tumors [3] (i.t. 30 nmoles per tumor) and with B16F10 melanoma tumors [3] (i.v. 60 nmoles per mouse) was “improved tumor control” in each case.
